Source: patent US20160075790A1 (Bristol-Myers Squibb, published 2016)
Substitutions are numbered along the chain they refer to. “And” between values parts separate entries of the source, which are not always exact repeats. Equal entries are not always repeated.

B1: BMS2h-730 (other)
VL: DIQMTQSPSSLSASVGDRVTITCRASQDIKDWLHWYQQKPGKAPKLLIYFASGLQSGVPSRFSGSGSGTDFTLTISSLQPEDSATYYCQQHYSTPYTSGQGTKVEIKR
B2: BMS2h-747 (other)
VH: EVQLLESGGGLVQPGGSLRLSCAASGFTFDDGTMGWARQAPGKGLEWVSLILPSGSRTYYADSVKGRFTISRDNSKNTLYLQMNSLRAEDTAVYYCAKHSLTNRPFDYWGQGTLVTVSS
B3: BMS2h-765 (other)
VH: EVQLLESGGGLVQPGGSLRLSCAASGFTFSAYTMEWVRQAPGKGLEWVSSIGVTGYDTYYADSVKGRFTISRDNSKNTLYLQMNSLRAEDTAVYYCAKGGQGFDYWGQGTLVTVSS
B4: BMS2h-752 (other)
VH: EVQLLESGGGLVQPGGSLRLSCAASGFTFSDYAMAWVRQAPGKGLEWVSRIGVEGGDTYYADSVKGRFTISRDNSKNTLYLQMNSLRAEDTAVYYCAKLLRLYRLGFDYWGQGTLVTVSS
B5: BMS2h-758 (other)
VH: EVQLLESGGGLVQPGGSLRLSCAASGFTFGDYGMNWVRQAPGKGLEWVSHISSNGRFTYYADSVKGRFTISRDNSKNTLYLQMNSLRAEDTAVYYCAETSGYFDYWGQGTLVTVSS
B6: BMS2h-758-3 (other)
VH: B5 VH with G101S, D104E
B7: BMS2h-758-2 (other)
VH: B5 VH with D104E
B8: BMS2h-758-1 (other)
VH: B5 VH with T78M, Q82R, F103Y, D104E
B9: BMS2h-758-5 (other)
VH: B5 VH with T28A, D104E
B10: BMS2h-758-4 (other)
VH: B5 VH with Y80F, F103Y, D104E, Q108H
B11: BMS2h-782 (other)
VH: EVQLLESGGGLVQPGGSLRLSCAASGFTFDDAEMFWVRQAPGKGLEWVSSIDARGLTTYYADPVKGRFTISRDNSKNTLYLQMNSLRAEDTAVYYCAEATSAMYPFDYWGQGTLVTVSS
B12: BMS2h-745 (other)
VH: EVQLLESGGGLVQPGGSLRLSCAASGFTFDNTEMAWVRQAPGKGLEWVSGIIEDGNRTYYADSVKGRFTISRDNSKNTLYLQMNSLRAEDTAVYYCAKIRNLHWDVGRQFDYWGQGTLVTVSS
B13: BMS2h-746 (other)
VH: B12 VH with D30G, N31S, T32A, A35G, I52S, E53R, D54P, N56Q, R57V
B14: BMS2h-745-13 (other)
VH: B12 VH with V37I
B15: BMS2h-745-1 (other)
VH: B12 VH with I52T
B16: BMS2h-745-9 (other)
VH: B12 VH with L11S, I52T, D111V
B17: BMS2h-784 (other)
VH: B12 VH with N31R, T32A, E33G, A35G, G50L, I52G, E53R, D54G, N56D, R57I
B18: BMS2h-745-2 (other)
VH: B12 VH with I52S, T91S, D111V
B19: BMS2h-745-14 (other)
VH: B12 VH with V37I, I52T
B20: BMS2h-722 (other)
VH: EVQLLESGGGLVQPGGSLRLSCAASGFTFTKYPMAWVRQAPGKGLEWVSGIDANGNRTYYADSVKGRFTISRDNSKNTLYLQMNSLRAEDTAVYYCAEGTWRRHFAIFDYWGQGTLVTVSS
B21: BMS2h-731 (other)
VL: DIQMTQSPPSLSASVGDRVTITCRASQLISSHLDWYQQKPGKAPKLLVYDASELQSGVPSRFSGSGSGTDFTLTISSLQPEDFATYYCQQHRSLPFTFGQGTKVEIKR
B22: BMS2h-775 (other)
VH: EVQLLESGGGLVQPGGSLRLSCAASGFTFPNYGMLWVRQAPGKGLEWVSSINSSGMETYYADSVKGRFTISRDNSKNTLYLQMNSLRAEDTAVYYCAKFFRLNDHNSVFGFDYWGQGTLVTVSS
B23: BMS2h-754 (other)
VH: EVQLLESGGGLVQPGGSLRLSCAASGFTFSRYDMVWVRQAPGKGLEWVSRINSMGLATYYADSVKGRFTISRDNSKNTLYLQMNSLRAEDTAVYYCAKDYSVAPHGYPLGFDYWGQGTLVTVSS
B24: BMS2h-783 (other)
VH: EVQLLESGGGLVQPGGSLRLSCAASGFTFRDYDMGWVRQAPGKGLEWVSTISPLGHFTYYADSVKGRFTISRDNSKNTLYLQMNSLRAEDTAVYYCAKSGFHEYTEGFDYWGQGTLVTVSS
B25: BMS2h-766 (other)
VH: EVQLLESGGGLVQPGGSLRLSCAASGFTFGDYGMSWVRQAPGKGLEWVSYIDPLGRLTYYADSVKGRFTISRDNSKNTLYLQMNSLRAEDTAVYYCAEDLSSLQYGVSPNFDYWGQGTLVTVSS
B26: BMS2h-726 (other)
VH: EVQLLESGGGLVQPGGSLRLSCAASGFTFDNYKMYWVRQAPGKGLEWVSSISEIGNLTYYADSVKGRFTISRDNSKNTLYLQMNSLRAEDTAVYYCAIALTRFDYWGQGTLVTVSS
B27: BMS2h-437 (other)
VL: DIQMTQSPSSLSASVGDRVTITCRASTPIGTMLDWYQQKPGKAPKLLIGHSSWLQSGVPSRFSGSGSGTDFTLTISSLQPEDFATYYCGQHVRPPATFGQGTKVEIKR
B28: BMS2h-781 (other)
VH: EVQLLESGGGLVQPGGSLRLSCAASGFTFTDYTMYWVRQAPGKGLEWVSKISPSGRSTYYADSVKGRFTISRDNSKNTLYLQMNSLRAEDTAVYYCAKDPFGFDYWGQGTLVTVSS
B29: BMS2h-744 (other)
VH: EVQLLESGGGLVQPGGSLRLSCAASGFTFKEHDMFWVRQAPGKGLEWVSGIGAEGVWTYYADSVKGRFTISRDNSKNTLYLQMNSLRAEDTAVYYCAEPTMSNGSQSRFDYWGQGTLVTVSS
B30: BMS2h-723 (other)
VH: EVQLLESGGGLVQPGGSLRLSCAASGFTFDLYDMMWVRQAPGKGLEWVSSISDLGTLTYYADSVKGRFTISRDNSKNTLYLQMNSLRAEDTAVYYCAKNGFRVTSNDRRFDYWGQGTLVTVSS
B31: BMS2h-780 (other)
VH: EVQLLESGGGLVQPGGSLRLSCAASGFTFGSYTMMWVRQAPGKGLEWVSEIDRTGERTYYADSVKGRFTISRDNSKNTLYLQMNSLRAEDTAVYYCAEPGFASLPFDYWGQGTLVTVSS
B32: BMS2h-725 (other)
VH: EVQLLESGGGLVQPGGSLRLSCAASGFTFSAYTMGWVRQAPGKGLEWVSLIGDRGSWTYYADSVKGRFTISRDNSKNTLYLQMNSLRAEDTAVYYCAEPSDPTKFDYWGQGTLVTVSS
B33: BMS2h-725-2 (other)
VH: B32 VH with D106V, L113P
B34: BMS2h-725-9 (other)
VH: B32 VH with K43M
B35: BMS2h-725-19 (other)
VH: B32 VH with E98D, D106V
B36: BMS2h-785 (other)
VL: DIQMTQSPSSLSASVGDRVTITCRASQPIYGWLNWYQQKPGKAPKLLIYLTSGLQSGVPSRFSGSGSGTDFTLTISSLQPEDFATYYCQQIHSSPFTFGQGTKVEIKR
B37: BMS2h-757 (other)
VH: EVQLLESGGGLVQPGGSLRLSCAASGFTFKEYNMAWVRQAPGKGLEWVSSINFAGRTTYYADSVKGRFTISRDNSKNTLYLQMNSLRAEDTAVYYCAKLSLPLDIFSFDYWGQGTLVTVSS
B38: BMS2h-774 (other)
VH: EVQLLESGGGLVQPGGSLRLSCAASGFTFREYDMGWVRQAPGKGLEWVSLISPPGRTTYYADSVKGRFTISRDNSKNTLYLQMNSLRAEDTAVYYCAKVVILGYTNRFDYWGQGTLVTVSS

The binders below were run against T1, human isoleucine zipper-CD40L (IZ-hCD40L) (human, UniProt P29965 113-261) (assay: cell-based or functional assay).
T1 sequence: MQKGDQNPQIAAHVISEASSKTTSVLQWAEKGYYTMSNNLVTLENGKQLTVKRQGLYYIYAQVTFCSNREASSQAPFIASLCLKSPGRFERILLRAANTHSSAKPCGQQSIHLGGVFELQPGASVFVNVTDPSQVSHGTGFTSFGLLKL

Point of comparison: B21, “hIZCD40L-driven Human B Cell Proliferation EC50” value 5.8 µM. Against it:
- B1 — higher, > 7 µM
- B2 — higher, > 7 µM
- B3 — higher, > 7 µM
- B4 — higher, > 7 µM
- B5 — within 1.5-fold, 5.9 µM
- B6 — higher, > 7 µM
- B7 — higher, > 7 µM
- B8 — higher, > 7 µM
- B9 — higher, > 7 µM
- B10 — higher, > 7 µM
- B11 — higher, > 7 µM
- B13 — higher, > 7 µM
- B14 — higher, > 7 µM
- B15 — higher, > 7 µM
- B16 — higher, > 7 µM
- B17 — not separable, > 4.7 µM
- B18 — higher, > 7 µM
- B19 — higher, > 7 µM
- B20 — higher, > 7 µM
- B22 — higher, > 7 µM
- B23 — within 1.5-fold, 6.6 µM
- B24 — not separable, > 2 µM
- B25 — higher, > 7 µM
- B26 — higher, > 7 µM
- B27 — within 1.5-fold, 5.7 µM
- B28 — higher, > 7 µM
- B29 — higher, > 7 µM
- B30 — higher, > 7 µM
- B31 — higher, > 7 µM
- B32 — within 1.5-fold, 6.4 µM
- B33 — higher, > 7 µM
- B34 — higher, > 7 µM
- B35 — higher, > 7 µM
- B37 — within 1.5-fold, 6.4 µM
- B38 — higher, > 7 µM

With B12 the “hIZCD40L-driven Human B Cell Proliferation EC50” value was 6.4 µM and 3.5 µM and > 7 µM.
In the case of B36, the “hIZCD40L-driven Human B Cell Proliferation EC50” value is reported as 3.7 µM and > 7 µM.
